Measured values from the supplement of paper PMC10126150.
± gives the standard deviation of the averaged measurements.

system: ATP; assay: switch fluorescence ratio, 500 uM ATP over buffer (Cy3 cluster intensity, sum of 5 cycles each) (fold (ratio)); higher = stronger signal-on switching upon ATP binding; sequences stand for … in TCGTCGGCAGCGTCAGATGTGTATAAGAGACAGTTTTTTTTTTTTTTTTTTTTTTTTT…TC; settings: aptamer strand: ATP DNA aptamer (quencher-CACCTGGGGGAGTATTGCGGAGGAAGG + anchor), 100 nM annealed; ATP concentration: 500 uM
Procedure, shortened: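 After annealing to 100 nM quencher-labelled ATP aptamer, Cy3-labelled switching-strand clusters on a modified Illumina MiSeq flow-cell were imaged in selection buffer. A second image followed after 15 min with 500 uM ATP at 22 °C, and five such buffer/ATP cycles were done, each separated by NaOH stripping and re-annealing. The fluorescence ratio, averaged per switch-domain sequence, is summed target-cycle over summed buffer-cycle Cy3 intensity per cluster, with clusters outside 100-1000 RFU excluded.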
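Note: ATP exposure 15 min at 22 °C before imaging.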

| Sequence | switch fluorescence ratio |
| --- | --- |
| CAAACGTGGG | 0.98611 ± 0.00012 |
| CAAAGAACTT | 1.01 ± 0.018 |
| CAAAGCATCT | 1.09 ± 0.011 |
| CAAAGCGCTG | 0.986 ± 0.012 |
| CAAAGGAAGC | 1.02 ± 0.05 |
| CAAAGGCAGG | 1.004 ± 0.0065 |
| CAAAGGGGAT | 0.99484 ± 0.00073 |
| CAAAGTAATT | 0.983 ± 0.033 |
| CAAAGTACGT | 1.18 ± 0.043 |
| CAAAGTTAAC | 0.949 ± 0.0098 |
| CAAAGTTAGG | 0.97 ± 0.013 |
| CAAAGTTGCG | 0.984 ± 0.017 |
| CAAAGTTTCG | 1.04 ± 0.0012 |
| CAAATAAAGG | 1.01 ± 0.025 |
| CAAATACCTG | 1.04 ± 0.019 |
| CAAATACGTT | 1.01 ± 0.029 |
| CAAATATTTT | 0.996 ± 0.017 |
| CAAATGTCAG | 0.99 ± 0.028 |
| CAAATTATGG | 1.03 ± 0.01 |
| CAAATTTGGT | 0.993 ± 0.032 |
| CAAATTTTCT | 0.978 ± 0.025 |
| CAACCGTGAA | 1.91 ± 0.92 |
| CAACCTGCAG | 1.06 ± 0.012 |
| CAACGCCTCC | 3.52 ± 0.082 |
| CAACGGGTTC | 1.03 ± 0.024 |

| Sequence | switch fluorescence ratio |
| --- | --- |
| CAACTATTGC | 1.04 ± 0.036 |
| CAACTATTTG | 1 ± 0.013 |
| CAACTCAGTA | 0.988 ± 0.016 |
| CAAGAAATTA | 1 ± 0.011 |
| CAAGAATGTA | 0.973 ± 0.024 |
| CAAGACCACT | 1.06 ± 0.045 |
| CAAGACTTCG | 1.01 ± 0.052 |
| CAAGAGGGAC | 1.04 ± 0.13 |
| CAAGATATAT | 1 ± 0.016 |
| CAAGATTCCA | 1.016 ± 0.0077 |
| CAAGCGACGG | 1.03 ± 0.022 |
| CAAGCGATGG | 1.63 ± 0.065 |
| CAAGGCTCAA | 1 ± 0.0013 |
| CAAGGGCCAG | 0.973 ± 0.07 |
| CAAGGGGGA | 0.995 ± 0.02 |
| CAAGGGGGGG | 0.99 ± 0.034 |
| CAAGGGGGTA | 0.995 ± 0.037 |
| CAAGGGTCCG | 0.991 ± 0.045 |
| CAAGGGTTGT | 0.992 ± 0.0024 |
| CAAGGTTGAG | 0.979 ± 0.034 |
| CAAGTAGGG | 0.956 ± 0.052 |
| CAAGTAGTGG | 1.03 ± 0.011 |
| CAAGTATATT | 0.968 ± 0.032 |
| CAAGTATCAT | 0.996 ± 0.076 |
| CAAGTATGAG | 0.9829 ± 0.0065 |

| Sequence | switch fluorescence ratio |
| --- | --- |
| CAAGTGACTT | 1.02 ± 0.016 |
| CAAGTGCTTA | 0.9578 ± 0.0081 |
| CAAGTGGCAC | 0.977 ± 0.022 |
| CAAGTTAAGG | 1.02 ± 0.013 |
| CAAGTTTGGG | 0.982 ± 0.019 |
| CAAGTTTTTT | 0.984 ± 0.016 |
| CAATAAAAG | 0.9766 ± 0.0071 |
| CAATAAAGCT | 1.07 ± 0.041 |
| CAATACTCAA | 2.14 ± 0.023 |
| CAATACTTG | 1.027 ± 0.0074 |
| CAATAGAGAG | 0.997 ± 0.024 |
| CAATAGGAGA | 0.981 ± 0.028 |
| CAATAGGGGC | 0.969 ± 0.03 |
| CAATATTATG | 1.02 ± 0.02 |
| CAATCAACCG | 1.064 ± 0.0015 |
| CAATCATAGT | 0.989 ± 0.028 |
| CAATCATGG | 1.01 ± 0.019 |
| CAATCTTCGT | 1.02 ± 0.021 |
| CAATGAAATC | 1.02 ± 0.027 |
| CAATGAGGTG | 1.08 ± 0.036 |
| CAATGGAAGG | 1.03 ± 0.025 |
| CAATGGGGGG | 1.02 ± 0.03 |
| CAATGGTCCA | 1.03 ± 0.024 |
| CAATGGTGGT | 1.01 ± 0.028 |
| CAATGTGAGG | 1.01 ± 0.0063 |

| Sequence | switch fluorescence ratio |
| --- | --- |
| CAATGTGGGA | 1.01 ± 0.021 |
| CAATGTGTTT | 1.01 ± 0.035 |
| CAATGTTGAG | 1 ± 0.032 |
| CAATGTTGAT | 1.01 ± 0.026 |
| CAATTAGGGA | 0.985 ± 0.017 |
| CAATTATCGC | 0.988 ± 0.028 |
| CAATTCAGAT | 0.952 ± 0.028 |
| CAATTCATTA | 1.02 ± 0.02 |
| CAATTGCGGG | 0.988 ± 0.055 |
| CAATTGCTGT | 1.01 ± 0.012 |
| CAATTTAATA | 1.01 ± 0.019 |
| CAATTTCGTT | 1.01 ± 0.021 |
| CAATTTTAGG | 0.987 ± 0.018 |
| CACAACGGGA | 0.985 ± 0.029 |
| CACAAGCGAT | 1.42 ± 0.063 |
| CACACAGTAT | 1.0721 ± 0.00011 |
| CACACGTTAT | 1.19 ± 0.019 |
| CACAGGAGGG | 1.03 ± 0.019 |
| CACAGGGCGG | 1.04 ± 0.017 |
| CACAGTGAGT | 0.997 ± 0.021 |
| CACAGTGGTA | 1.03 ± 0.058 |
| CACATCATAT | 1.04 ± 0.039 |
| CACATTATGA | 1.04 ± 0.014 |
| CACCAGAGCT | 1.09 ± 0.026 |
| CACCAGGGCT | 1.6 ± 0.051 |

| Sequence | switch fluorescence ratio |
| --- | --- |
| CACCGGCTGG | 0.986 ± 0.086 |
| CACCTTACTC | 2.07 ± 0.11 |
| CACGACTTCC | 2.27 ± 0.12 |
| CACGAGGAGG | 0.9809 ± 0.0055 |
| CACGAGGTTG | 0.992 ± 0.02 |
| CACGCAGGGT | 1.11 ± 0.12 |
| CACGCATGTT | 1.09 ± 0.015 |
| CACGCGTATG | 1.03 ± 0.011 |
| CACGGAGAGT | 1.14 ± 0.18 |
| CACGGATAGC | 1.07 ± 0.027 |
| CACGGCGTAG | 1.02 ± 0.013 |
| CACGGGGGAC | 1.06 ± 0.021 |
| CACGGGGGAT | 1.03 ± 0.011 |
| CACGGGGTCC | 1.06 ± 0.069 |
| CACGGGTGTT | 1.32 ± 0.12 |
| CACGGTGCGG | 1.01 ± 0.015 |
| CACGTATCTC | 1.2 ± 0.05 |
| CACGTCCAC | 1.44 ± 0.061 |
| CACGTTATAG | 1.19 ± 0.026 |
| CACGTTGTAT | 1.32 ± 0.42 |
| CACTAACTA | 1.121 ± 0.0035 |
| CACTAATGGT | 1.073 ± 0.0072 |
| CACTAGCTCG | 1.02 ± 0.021 |
| CACTAGGGGA | 1 ± 0.028 |
| CACTAGTCTG | 1.01 ± 0.033 |

| Sequence | switch fluorescence ratio |
| --- | --- |
| CACTATAACT | 1.071 ± 0.0068 |
| CACTATAGCG | 1.042 ± 0.0098 |
| CACTCTGTCA | 1.04 ± 0.022 |
| CACTCTTGAT | 1.01 ± 0.019 |
| CACTGAAGTT | 1.026 ± 0.00036 |
| CACTGGGGCA | 1.1 ± 0.15 |
| CACTGGGTGT | 1.24 ± 0.021 |
| CAGAAACGGT | 1 ± 0.047 |
| CAGAACCCGC | 1.1 ± 0.015 |
| CAGAAGTCCA | 0.991 ± 0.052 |
| CAGAATGGTG | 0.978 ± 0.028 |
| CAGAATGTTA | 1 ± 0.038 |
| CAGAATTTAG | 0.996 ± 0.024 |
| CAGACCGGTT | 0.996 ± 0.035 |
| CAGAGAAAGG | 0.997 ± 0.014 |
| CAGAGAAAGT | 0.973 ± 0.038 |
| CAGAGAAGGC | 0.991 ± 0.018 |
| CAGAGACTTT | 0.994 ± 0.012 |
| CAGAGAGTTA | 0.984 ± 0.024 |
| CAGAGGGGAG | 1.03 ± 0.027 |
| CAGAGGGGGT | 0.988 ± 0.017 |
| CAGAGGGTGC | 1.03 ± 0.017 |
| CAGAGGTGGC | 1.07 ± 0.032 |
| CAGAGTGTGA | 1.005 ± 0.0086 |
| CAGATAGGTG | 1.15 ± 0.089 |

| Sequence | switch fluorescence ratio |
| --- | --- |
| CAGATATTAC | 1.06 ± 0.035 |
| CAGATCAGTA | 0.964 ± 0.015 |
| CAGATCCTTA | 1.051 ± 0.0082 |
| CAGATCGGTT | 0.964 ± 0.014 |
| CAGATGGGTA | 0.971 ± 0.025 |
| CAGATGTGGC | 0.927 ± 0.037 |
| CAGATGTTTT | 0.987 ± 0.052 |
| CAGATTCTGT | 0.973 ± 0.023 |
| CAGATTTAAG | 0.994 ± 0.017 |
| CAGATTTAGC | 0.9728 ± 0.0068 |
| CAGCACGCGC | 1.06 ± 0.038 |
| CAGCAGAGGT | 1.02 ± 0.013 |
| CAGCAGATTA | 1.04 ± 0.018 |
| CAGCAGGGGT | 1.24 ± 0.15 |
| CAGCCCAGGT | 4.12 ± 2.7 |
| CAGCGTCCCT | 1.07 ± 0.014 |
| CAGCGTCGT | 1.02 ± 0.025 |
| CAGCGTTCAC | 1.054 ± 0.0092 |
| CAGCTCATGC | 1.0792 ± 0.00059 |
| CAGCTCCCGG | 1.07 ± 0.039 |
| CAGCTTAGGG | 1.01 ± 0.036 |
| CAGCTTGGAT | 0.977 ± 0.013 |
| CAGGAAAACG | 1.03 ± 0.018 |
| CAGGAAATGG | 0.999 ± 0.017 |
| CAGGAACTTT | 0.995 ± 0.0012 |

| Sequence | switch fluorescence ratio |
| --- | --- |
| CAGGAAGCGG | 1.025 ± 0.0027 |
| CAGGACCCGG | 1.071 ± 0.0084 |
| CAGGAGGAAT | 1.242 ± 0.0098 |
| CAGGAGTGAG | 1.0068 ± 0.00044 |
| CAGGATTGGG | 0.973 ± 0.043 |
| CAGGCGCAGG | 1.06 ± 0.051 |
| CAGGCGCTCT | 1.04 ± 0.054 |
| CAGGCGTCGT | 1.035 ± 0.0023 |
| CAGGCTAAAG | 0.989 ± 0.032 |
| CAGGCTAGGC | 1.02 ± 0.056 |
| CAGGCTGGTC | 0.992 ± 0.053 |
| CAGGGAGGAC | 1.01 ± 0.013 |
| CAGGGATTAG | 1.01 ± 0.044 |
| CAGGGATTGA | 0.998 ± 0.0049 |
| CAGGGATTTA | 0.978 ± 0.024 |
| CAGGGCCCTG | 0.995 ± 0.056 |
| CAGGGGAAAC | 1.02 ± 0.077 |
| CAGGGGCGAC | 1.02 ± 0.049 |
| CAGGGGCTTA | 1 ± 0.038 |
| CAGGGGCTTT | 1.04 ± 0.0067 |
| CAGGGGGATA | 1.3 ± 0.43 |
| CAGGGGGATG | 1.01 ± 0.032 |
| CAGGGGGCCG | 1.01 ± 0.078 |
| CAGGGGGCGA | 1.06 ± 0.07 |
| CAGGGGGCTT | 1.03 ± 0.054 |
